Values belong to the molecule of their own block, whether it stands above or below them.
Legend:
[1] = target: activated leucocyte-cell adhesion molecule (ALCAM), CD6 ligand (human); test: indirect immunofluorescence and flow cytometry, cultured TE cells; control
[2] = target: activated leucocyte-cell adhesion molecule (ALCAM), CD6 ligand (human); test: flow cytometry, TE cells after CD58 mAb
[3] = target: activated leucocyte-cell adhesion molecule (ALCAM), CD6 ligand (human); test: flow cytometry, HBL-100 cells, 10 to 200 µg/ml
[4] = target: activated leucocyte-cell adhesion molecule (ALCAM), CD6 ligand (human); test: indirect immunofluorescence and flow cytometry, cultured TE cells
[5] = target: activated leucocyte-cell adhesion molecule (ALCAM), CD6 ligand (human); test: flow cytometry, HBL-100 cells after mAb J4-81; CD5-Rg subtracted
[6] = target: activated leucocyte-cell adhesion molecule (ALCAM), CD6 ligand (human); test: flow cytometry, TE cells after CD40 mAb
[7] = target: activated leucocyte-cell adhesion molecule (ALCAM), CD6 ligand (human); test: flow cytometry, TE cells after CD24 mAb
[8] = target: activated leucocyte-cell adhesion molecule (ALCAM), CD6 ligand (human); test: flow cytometry, TE cells after CD66 mAb
[9] = target: activated leucocyte-cell adhesion molecule (ALCAM), CD6 ligand (human); test: flow cytometry, HBL-100 cells after control mAb P3
[10] = target: activated leucocyte-cell adhesion molecule (ALCAM), CD6 ligand (human); test: flow cytometry, TE cells after control mAb P3
[11] = target: activated leucocyte-cell adhesion molecule (ALCAM), CD6 ligand (human); test: flow cytometry, HBL-100 cells after control mAb P3; CD5-Rg subtracted
[12] = target: activated leucocyte-cell adhesion molecule (ALCAM), CD6 ligand (human); test: flow cytometry, TE cells after CD24 mAb; CD5-Rg subtracted
[13] = target: activated leucocyte-cell adhesion molecule (ALCAM), CD6 ligand (human); test: flow cytometry, TE cells after CD59 mAb; CD5-Rg subtracted
[14] = target: activated leucocyte-cell adhesion molecule (ALCAM), CD6 ligand (human); test: flow cytometry, TE cells after CD58 mAb; CD5-Rg subtracted
[15] = target: activated leucocyte-cell adhesion molecule (ALCAM), CD6 ligand (human); test: flow cytometry, TE cells after CD51 mAb; CD5-Rg subtracted
[16] = target: activated leucocyte-cell adhesion molecule (ALCAM), CD6 ligand (human); test: flow cytometry, TE cells after mAb J4-81
[17] = target: activated leucocyte-cell adhesion molecule (ALCAM), CD6 ligand (human); test: flow cytometry, TE cells after CD63 mAb; CD5-Rg subtracted
[18] = target: activated leucocyte-cell adhesion molecule (ALCAM), CD6 ligand (human); test: flow cytometry, TE cells after CD40 mAb; CD5-Rg subtracted
[19] = target: activated leucocyte-cell adhesion molecule (ALCAM), CD6 ligand (human); test: flow cytometry, TE cells after control mAb P3; CD5-Rg subtracted
[20] = target: activated leucocyte-cell adhesion molecule (ALCAM), CD6 ligand (human); test: flow cytometry, HBL-100 cells after mAb J4-81
[21] = target: activated leucocyte-cell adhesion molecule (ALCAM), CD6 ligand (human); test: flow cytometry, TE cells after CD9 mAb
[22] = target: activated leucocyte-cell adhesion molecule (ALCAM), CD6 ligand (human); test: flow cytometry, TE cells after CD46 mAb; CD5-Rg subtracted
[23] = target: activated leucocyte-cell adhesion molecule (ALCAM), CD6 ligand (human); test: flow cytometry, TE cells after CD54 mAb
[24] = target: activated leucocyte-cell adhesion molecule (ALCAM), CD6 ligand (human); test: flow cytometry, TE cells after CD46 mAb
[25] = target: activated leucocyte-cell adhesion molecule (ALCAM), CD6 ligand (human); test: flow cytometry, TE cells after CD66 mAb; CD5-Rg subtracted
[26] = target: activated leucocyte-cell adhesion molecule (ALCAM), CD6 ligand (human); test: flow cytometry, TE cells after CD51 mAb
[27] = target: activated leucocyte-cell adhesion molecule (ALCAM), CD6 ligand (human); test: flow cytometry, TE cells, 10 mM EDTA against DME with 5% FBS
[28] = target: activated leucocyte-cell adhesion molecule (ALCAM), CD6 ligand (human); test: flow cytometry, TE cells after CD9 mAb; CD5-Rg subtracted
[29] = target: activated leucocyte-cell adhesion molecule (ALCAM), CD6 ligand (human); test: flow cytometry, TE cells after CD59 mAb
[30] = target: activated leucocyte-cell adhesion molecule (ALCAM), CD6 ligand (human)
[31] = target: activated leucocyte-cell adhesion molecule (ALCAM), CD6 ligand (human); test: flow cytometry, TE cells, buffer with 5 mM CaCl2
[32] = target: activated leucocyte-cell adhesion molecule (ALCAM), CD6 ligand (human); test: flow cytometry, TE cells after CD54 mAb; CD5-Rg subtracted
[33] = target: activated leucocyte-cell adhesion molecule (ALCAM), CD6 ligand (human); test: flow cytometry, TE cells after mAb J4-81; CD5-Rg subtracted
[34] = target: activated leucocyte-cell adhesion molecule (ALCAM), CD6 ligand (human); test: flow cytometry, TE cells after CD63 mAb
[35] = target: activated leucocyte-cell adhesion molecule (ALCAM), CD6 ligand (human); test: flow cytometry, TE cells, buffer with 5 mM MgCl2
[36] = target: activated leucocyte-cell adhesion molecule (ALCAM), CD6 ligand (human); test: flow cytometry, TE cells, buffer with 5 mM MnCl2
[37] = target: activated leucocyte-cell adhesion molecule (ALCAM), CD6 ligand (human); remark: listed apart in the source

Molecule: CD6-Rg fusion protein (CD6 receptor globulin) (from UniProt P30203) (Fc fusion)
% Binding [2]: 87%
% inhibition [2]: 13%
saturating concentration [3]: 100 µg/mL
MFC (linear mean fluorescence channel) [4]: 165
Δ Fluorescence [5]: 34
% Binding [6]: 92%
% inhibition [6]: 8%
% Binding [7]: 92%
% inhibition [7]: 8%
% Binding [8]: 108%
% inhibition [8]: -8%
% Binding [9]: 100%
% inhibition [9]: 0%
% Binding [10]: 100%
% inhibition [10]: 0%
Δ Fluorescence [11]: 58
Δ Fluorescence [12]: 48
Δ Fluorescence [13]: 52
Δ Fluorescence [14]: 45
Δ Fluorescence [15]: 46
% Binding [16]: 40%
Δ Fluorescence [17]: 53
Δ Fluorescence [18]: 48
Δ Fluorescence [19]: 52
% Binding [20]: 59%
% Binding [21]: 115%
% inhibition [21]: -15%
Δ Fluorescence [22]: 57
% Binding [23]: 85%
% inhibition [23]: 15%
% Binding [24]: 110%
% inhibition [24]: -10%
Δ Fluorescence [25]: 56
% Binding [26]: 88%
% inhibition [26]: 12%
% inhibition of binding by 10 mM EDTA [27]: 54%
Δ Fluorescence [28]: 60
% Binding [29]: 100%
% inhibition [29]: 0%
% Inhibition of thymocyte-thymic epithelial cell binding (rosettes) [30]: 34.5%
relative binding with 5 mM CaCl2 [31]: 144%
Δ Fluorescence [32]: 44
Δ Fluorescence [33]: 21
% Binding [34]: 102%
% inhibition [34]: -2%
relative binding with 5 mM MgCl2 [35]: 94%
relative binding with 5 mM MnCl2 [36]: 318%

Molecule: ELAM1-Rg fusion protein (from UniProt P16581) (Fc fusion)
MFC (linear mean fluorescence channel) [1]: 70.5

Continued, values first:

MFC (linear mean fluorescence channel) [1]: 72.1
Molecule: CD5-Rg fusion protein (from UniProt P06127) (Fc fusion)

MFC (linear mean fluorescence channel) [1]: 72.9
Molecule: human IgG1 (control)

% COS cells binding TE cells [37]: 25%
B1: CD6, P30203 (protein)
chain: HPSPAPPDQLNTSSAESELWEPGERLPVRLTNGSSSCSGTVEVRLEASWEPACGALWDSRAAEAVCRALGCGGAEAASQLAPPTPELPPPPAAGNTSVAANATLAGAPALLCSGAEWRLCEVVEHACRSDGRRARVTCAENRALRLVDGGGACAGRVEMLEHGEWGSVCDDTWDLEDAHVVCRQLGCGWAVQALPGLHFTPGRGPIHRDQVNCSGAEAYLWDCPGLPGQHYCGHKEDAGAVCSEHQSWRLTGGADRCEGQVEVHFRGVWNTVCDSEWYPSEAKVLCQSLGCGTAVERPKGLPHSLSGRMYYSCNGEELTLSNCSWRFNNSNLCSQSLAARVLCSASRSLHNLSTPEVPASVQTVTIESSVTVKIENKESRELMLLIPSIVLGILLLGSLIFIAFILLRIKGKYALPVMVNHQHLPTTIPAGSNSYQPVPITIPKEVFMLPIQVQAPPPEDSDSGSDSDYEHYDFSAQPPVALTTFYNSQRHRVTDEEVQQSRFQMPPLEEGLEELHASHIPTANPGHCITDPPSLGPQYHPRSNSESSTSSGEDYCNSPKSKLPPWNPQVFSSERSSFLEQPPNLELAGTQPAFSAGPPADDSSSTSSGEWYQNFQPPPQPPSEEQFGCPGSPSPQPDSTDNDDYDDISAA

Source: patent US5998172
